Experimental data reported in patent US20230303689A1 (published 2023).

Target: human PD-1 expressed on cells (HuT78/PD-1, NK92MI/PD-1) (human, UniProt Q15116 25-288)
Assay: FACS binding (MFI)

Sequence of human PD-1 expressed on cells (HuT78/PD-1, NK92MI/PD-1) (Q15116 25-288): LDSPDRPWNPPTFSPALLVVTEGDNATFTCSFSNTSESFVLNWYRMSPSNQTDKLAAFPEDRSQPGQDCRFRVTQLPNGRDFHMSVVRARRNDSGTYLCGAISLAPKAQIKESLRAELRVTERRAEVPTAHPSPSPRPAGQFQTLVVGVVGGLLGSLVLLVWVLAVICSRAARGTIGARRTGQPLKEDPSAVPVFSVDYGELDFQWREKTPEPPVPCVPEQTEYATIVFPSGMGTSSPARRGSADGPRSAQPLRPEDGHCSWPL

EC50: 0.105 µg/mL
B1: murine mAb 317 (antibody, V domains shown)
VH: QVQLKESGPGLVAPSKNLSITCTVSGFSLTSYGVHWIRQPPGKGLEWLGVIWAGGSTNYNSALMSRLSISKDNSRSQVFLRMNSLQTDDTAMYYCARAYGNYWYIDVWGAGTTVTVSS
VL: DIVMTQTPKFLLVSAGDRVTITCKASQSVSNDVAWYQQKPGQSPKLLINYAFHRFTGVPDRFTGSGYGTDFIFTISTVQAEDLAVYFCHQAYSSPYTFGGGTKLEMK
